Experiments:
[1] = target: A391E EC+TM FGFR3 construct (human)
[2] = target: EC+TM (A374I-G375I-S378I) FGFR3 mutant (human)
[3] = target: EC+TM (L377I-G380I-A391I) FGFR3 mutant (human)
[4] = target: FGFR1 EC+TM-(GGS)5-YFP / FGFR1 EC+TM-(GGS)5-mCherry (human)
[5] = target: FGFR3 EC+TM-(GGS)5-YFP / FGFR3 EC+TM-(GGS)5-mCherry (human)
[6] = target: full-length FGFR3 (human FGFR3 IIIc) fused to YFP or mCherry (human) (UniProt P22607)
UniProt P22607, sequence (P22607 23-806): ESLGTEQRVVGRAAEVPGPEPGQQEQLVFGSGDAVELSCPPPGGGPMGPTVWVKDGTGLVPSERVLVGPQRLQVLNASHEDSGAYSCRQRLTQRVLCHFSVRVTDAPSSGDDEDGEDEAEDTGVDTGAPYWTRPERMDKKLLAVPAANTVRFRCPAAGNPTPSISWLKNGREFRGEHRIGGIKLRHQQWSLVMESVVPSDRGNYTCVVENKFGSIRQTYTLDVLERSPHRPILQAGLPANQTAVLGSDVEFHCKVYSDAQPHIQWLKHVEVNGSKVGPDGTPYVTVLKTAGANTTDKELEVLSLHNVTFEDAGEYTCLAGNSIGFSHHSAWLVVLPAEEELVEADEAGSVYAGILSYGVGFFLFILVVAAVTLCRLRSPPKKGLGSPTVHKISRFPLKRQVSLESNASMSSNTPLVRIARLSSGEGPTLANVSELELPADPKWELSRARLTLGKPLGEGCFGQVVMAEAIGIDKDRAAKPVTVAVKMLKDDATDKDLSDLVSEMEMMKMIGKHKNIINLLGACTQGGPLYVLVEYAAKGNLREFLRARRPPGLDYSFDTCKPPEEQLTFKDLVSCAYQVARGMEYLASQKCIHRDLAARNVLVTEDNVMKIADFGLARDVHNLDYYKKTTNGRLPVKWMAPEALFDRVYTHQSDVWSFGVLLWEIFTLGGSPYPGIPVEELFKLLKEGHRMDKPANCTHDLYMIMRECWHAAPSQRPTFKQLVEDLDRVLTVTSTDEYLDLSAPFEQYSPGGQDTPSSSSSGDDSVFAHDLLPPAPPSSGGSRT

## human fgf1 (from UniProt P05230 16-155) (ligand)
[1]
  intrinsic FRET of the EC+TM FGFR3 A391E dimer (QI-FRET in vesicles) at saturating fgf1: 0.75
[2]
  intrinsic FRET of the EC+TM FGFR3 A374I-G375I-S378I dimer (QI-FRET in vesicles) at saturating fgf1: 0.63
[3]
  intrinsic FRET of the EC+TM FGFR3 L377I-G380I-A391I dimer (QI-FRET in vesicles) at saturating fgf1: 0.52
[4]
  intrinsic FRET of the EC+TM FGFR1 dimer (QI-FRET in vesicles) at saturating fgf1 (5 μg ml^−1): 0.55
[5]
  intrinsic FRET of the EC+TM FGFR3 dimer (QI-FRET in vesicles) at saturating fgf1 (5 μg ml^−1): 0.55
[6]
  fold increase of full-length FGFR3 phosphorylation (western blot, anti-phospho-Tyr) at saturating fgf1 over no ligand: 1.5 to 3 fold

## human fgf2 (from UniProt P09038 143-288) (ligand)
[1]
  intrinsic FRET of the EC+TM FGFR3 A391E dimer (QI-FRET in vesicles) at saturating fgf2: 0.78
[2]
  intrinsic FRET of the EC+TM FGFR3 A374I-G375I-S378I dimer (QI-FRET in vesicles) at saturating fgf2: 0.74
[3]
  intrinsic FRET of the EC+TM FGFR3 L377I-G380I-A391I dimer (QI-FRET in vesicles) at saturating fgf2: 0.53
[4]
  intrinsic FRET of the EC+TM FGFR1 dimer (QI-FRET in vesicles) at saturating fgf2 (5 μg ml^−1): 0.73
[5]
  intrinsic FRET of the EC+TM FGFR3 dimer (QI-FRET in vesicles) at saturating fgf2 (5 μg ml^−1): 0.72
[6]
  fold increase of full-length FGFR3 phosphorylation (western blot, anti-phospho-Tyr) at saturating fgf2 over no ligand: 2 to 4 fold
